# From patent publication CN114829399A (dated 2022)
# T1: 人FLT3/FLK2受体蛋白 (human, UniProt P36888 27-993)
# T1 construct: whole, on cells; Always presented on cells (REH/Reh endogenous); also called CD135; 人酪氨酸激酶受体FLT3/FLK2受体蛋白
# T1 sequence (looked up): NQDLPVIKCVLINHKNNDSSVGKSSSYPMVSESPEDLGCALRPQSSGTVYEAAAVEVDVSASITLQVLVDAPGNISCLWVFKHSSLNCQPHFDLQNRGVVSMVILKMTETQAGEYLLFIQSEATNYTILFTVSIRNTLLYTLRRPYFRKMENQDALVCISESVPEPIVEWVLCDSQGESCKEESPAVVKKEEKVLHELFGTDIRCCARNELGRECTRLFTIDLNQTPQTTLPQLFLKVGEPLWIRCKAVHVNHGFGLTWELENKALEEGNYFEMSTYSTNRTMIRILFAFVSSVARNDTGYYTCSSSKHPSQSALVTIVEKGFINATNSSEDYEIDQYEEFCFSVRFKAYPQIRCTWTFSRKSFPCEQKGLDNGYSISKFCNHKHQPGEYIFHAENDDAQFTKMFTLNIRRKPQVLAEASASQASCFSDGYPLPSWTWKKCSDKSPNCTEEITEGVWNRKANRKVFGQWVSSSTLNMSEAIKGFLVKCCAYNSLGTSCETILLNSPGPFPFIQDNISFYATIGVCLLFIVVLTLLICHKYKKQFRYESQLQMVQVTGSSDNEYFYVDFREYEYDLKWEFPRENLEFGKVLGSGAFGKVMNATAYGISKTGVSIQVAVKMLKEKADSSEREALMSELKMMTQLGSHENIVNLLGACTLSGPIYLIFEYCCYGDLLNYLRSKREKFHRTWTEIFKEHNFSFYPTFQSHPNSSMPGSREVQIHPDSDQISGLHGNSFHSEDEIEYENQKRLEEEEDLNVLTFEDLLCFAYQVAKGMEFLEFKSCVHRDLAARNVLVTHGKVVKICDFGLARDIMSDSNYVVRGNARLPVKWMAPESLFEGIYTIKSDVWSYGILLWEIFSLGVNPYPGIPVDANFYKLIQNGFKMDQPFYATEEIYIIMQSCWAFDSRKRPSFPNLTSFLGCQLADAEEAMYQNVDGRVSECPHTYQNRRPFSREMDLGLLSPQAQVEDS
# Target: T1, 人FLT3/FLK2受体蛋白
# Experiment: flow cytometry EC curve on REH cells
row,binding result,Binder
1,binds,"MHC1693 - 3-16HA (antibody, V domains shown, Mouse monoclonal from hybridoma; Entries are called 'light chain' and 'heavy chain'; also called Ab3-16HA) VH: EVQLQQSGAELVRPGALVKLSCKGSGFNIKDYYIHWVKQRPEQGLEWIGRIDPENDITMYDPKFQGKASITADTSSNTAYLQLSSLTSEDTAVYYCARNGNFFAYWGQGTLVTVSA VL: not shown"
2,binds,"MHC1694 - 1-18BA (antibody, V domains shown, Mouse monoclonal from hybridoma; Entries are called 'light chain' and 'heavy chain'; also called Ab1-18New) VH: QVTLKESGPGILQPSQTLSLTCSFSGFSLSTSTMGVGWIRQPSGKGLEWLLHILWNDSKYYNPALKSRLTISKDTYNKQVFLKIANVDTADTATYYCARIVYYSTYVGYFDVWGAGTTVTVSS VL: DIQMTQSPSSLSASLGERVSLTCRASQEISGYLSWLQQKPDGTIKRLIYAASTLHSGVPKRFSGSRSGSDYSLTISRLESEDVADYYCLQYASYPFTFGSGTKLEIR"
3,binds,"MHC1692 - 1-23DA (antibody, V domains shown, Mouse monoclonal from hybridoma; also called Ab1-23DA) VH: QVTLKESGPGILQPSQTLSLTCSFSGFSLSTSTMGVGWIRQPSGKGLEWLLHILWNDSKYYNPALKSRLTISKDTYNKQVFLKIANVDTADTATYYCARIVYYSTYVGYFDVWGAGTTVTVSS VL: DIQMTQSPSSLSASLGERVSLTCRASQEISGYLSWLQQKPDGTIKRLIYAASTLHSGVPKRFSGSRSGSDYSLTISRLESEDVADYYCLQYASYPFTFGSGTKLEIR"
